Where no end group is shown, it is not given here. [ ]: non-standard residue; d: D form. Aib = CC(C)(N)C(=O)O
B1: [Aib8,Glu22,Glu23,Val25,Glu34,Lys35,Val36,Lys37]-GLP-1-(7-37)-peptidyl-Glu-Phe-Leu amide (peptide)
peptide: H[Aib]EGTFTSDVSSYLEEEAVKEFIAWLVEKVKEFL-NH2
modifications: N-terminus assumed
SMILES: CC[C@H](C)[C@H](NC(=O)[C@H](Cc1ccccc1)NC(=O)[C@H](CCC(=O)O)NC(=O)[C@H](CCCCN)NC(=O)[C@@H](NC(=O)[C@H](C)NC(=O)[C@H](CCC(=O)O)NC(=O)[C@H](CCC(=O)O)NC(=O)[C@H](CCC(=O)O)NC(=O)[C@H](CC(C)C)NC(=O)[C@H](Cc1ccc(O)cc1)NC(=O)[C@H](CO)NC(=O)[C@H](CO)NC(=O)[C@@H](NC(=O)[C@H](CC(=O)O)NC(=O)[C@H](CO)NC(=O)[C@@H](NC(=O)[C@H](Cc1ccccc1)NC(=O)[C@@H](NC(=O)CNC(=O)[C@H](CCC(=O)O)NC(=O)C(C)(C)NC(=O)[C@@H](N)Cc1c[nH]cn1)[C@@H](C)O)[C@@H](C)O)C(C)C)C(C)C)C(=O)N[C@@H](C)C(=O)N[C@@H](Cc1c[nH]c2ccccc12)C(=O)N[C@@H](CC(C)C)C(=O)N[C@H](C(=O)N[C@@H](CCC(=O)O)C(=O)N[C@@H](CCCCN)C(=O)N[C@H](C(=O)N[C@@H](CCCCN)C(=O)N[C@@H](CCC(=O)O)C(=O)N[C@@H](Cc1ccccc1)C(=O)N[C@@H](CC(C)C)C(N)=O)C(C)C)C(C)C
B2: [Aib8,Glu23,Val25,Glu34,Lys35,Aib36,Lys37]-GLP-1-(7-37)-peptide amide (peptide)
peptide: H[Aib]EGTFTSDVSSYLEGEAVKEFIAWLVEK[Aib]K-NH2
modifications: N-terminus assumed
SMILES: CC[C@H](C)[C@H](NC(=O)[C@H](Cc1ccccc1)NC(=O)[C@H](CCC(=O)O)NC(=O)[C@H](CCCCN)NC(=O)[C@@H](NC(=O)[C@H](C)NC(=O)[C@H](CCC(=O)O)NC(=O)CNC(=O)[C@H](CCC(=O)O)NC(=O)[C@H](CC(C)C)NC(=O)[C@H](Cc1ccc(O)cc1)NC(=O)[C@H](CO)NC(=O)[C@H](CO)NC(=O)[C@@H](NC(=O)[C@H](CC(=O)O)NC(=O)[C@H](CO)NC(=O)[C@@H](NC(=O)[C@H](Cc1ccccc1)NC(=O)[C@@H](NC(=O)CNC(=O)[C@H](CCC(=O)O)NC(=O)C(C)(C)NC(=O)[C@@H](N)Cc1c[nH]cn1)[C@@H](C)O)[C@@H](C)O)C(C)C)C(C)C)C(=O)N[C@@H](C)C(=O)N[C@@H](Cc1c[nH]c2ccccc12)C(=O)N[C@@H](CC(C)C)C(=O)N[C@H](C(=O)N[C@@H](CCC(=O)O)C(=O)N[C@@H](CCCCN)C(=O)NC(C)(C)C(=O)N[C@@H](CCCCN)C(N)=O)C(C)C

Each binder was assayed against human GLP-1 receptor (human, UniProt P43220) (assay: cell-based or functional assay).

| Binder | CRE luciferase EC50, 0% HSA [nM] | CRE luciferase EC50, 1% HSA [nM] |
| --- | --- | --- |
| HAEGTFTSDVSSYLEGEAVREFIAWLVHRVREFLEK [[Glu23,Val25,Arg26,His34,Arg35,Val36,Arg37]-GLP-1-(7-37)-peptidyl-Glu-Phe-Leu-Glu-Lys] | 0.039 | 0.014 |
| B1 | 0.116 | 0.034 |
| HAEGTFTSDVSSYLEGQAAKEFIAWLVEKVHEFL-NH2 [[Glu34,Lys35,Val36,His37]-GLP-1-(7-37)-peptidyl-Glu-Phe-Leu amide] | 0.107 | 0.03 |
| B2 | 0.015 | 0.004 |
| HAEGTFTSDVSSYLEGQAAKEFIAWLVEHVKEFL-NH2 [[Glu34,His35,Val36,Lys37]-GLP-1-(7-37)-peptidyl-Glu-Phe-Leu amide] | 0.103 | 0.024 |

From US20150344540A1, “NOVEL GLP-1 RECEPTOR AGONISTS WITH CHOLESTEROL EFFLUX ACTIVITY” (NOVO NORDISK A/S, priority 2012, published 2015)
